# Measured values published in article PMC11187563, “The importance of tyrosines in multimers of cyclic RGD nonapeptides: towards αvβ6-integrin targeted radiotherapeutics” (RSC Medicinal Chemistry, 2024).
# Like-named read-outs stand apart in the source and are kept apart here.
# Columns and labels:
# [1] = Ex vivo biodistribution of 177Lu-labeled peptide tetramers in H2009 xenografted SCID mice; conditions: CB17 SCID, mouse, iv, total radioactivity, H2009 bearing SCID mice; for tissue uptake at 72 h / tissue to tissue ratio at 72 h: 70 pmol, 3 d p.i.; for tissue uptake at 1.5 h / tissue to tissue ratio at 1.5 h: 118 pmol, 90 min p.i.
# Experimental: (§1) The biodistribution of the ^177Lu-labeled peptide conjugates was investigated in severe combined immunodeficiency (SCID) mice bearing subcutaneous xenografts of the αvβ6-integrin expressing human lung adenocarcinoma cell line H2009 on their right shoulders. Two representative time points after i.v. administration (p.i.) were evaluated.
# (§2) Analytical HPLC was performed on a Shimadzu (Kyoto, Japan) Prominence HPLC system equipped with either a Dr. Maisch ReproSil Pur C18 AQ 150 × 4.6 mm, 5 μm, 120 Å (AC1) or a Phenomenex Kinetex C18 150 × 4.6 mm 5 μm column (AC2). Semipreparative HPLC was performed on a Shimadzu HPLC system equipped with either a Dr. Maisch ReproSil Pur C18 AQ 250 × 10 mm, 5 μm, 120 Å column with 5 mL min^−1 flow (PC1) or a Dr. Maisch ReproSil Pur C18 150 × 30 mm, 5 μm, 120 Å column with 20 mL min^−1 flow (PC2). Solvents for both systems were water (A) and acetonitrile (B) each supplemented with 0.1% (vol) trifluoroacetic acid (TFA). ESI-MS spectra (positive mode) were recorded on a Shimadzu LC-MS 2020 single quadrupol mass spectrometer. Solvents for MS applications were water (A) and acetonitrile (B) each supplemented with 0.1% (vol) formic acid. The other experimental procedures (determination of log D7.4, cultivation of H2009 human lung adenocarcinoma cells, generation of tumor xenografts in CB17 SCID mice, and biodistribution) were performed as described before.[28] All animal experiments have been carried out according to applicable law and institutional guidelines of Technical University of Munich, and were approved by the responsible local authority (Regierung von Oberbayern). The H2009 cells were regularly authenticated and tested for mycoplasma contamination. DOTPI-tetraazide,[43]FF (previously termed AvB6),[29]FY,[34] and YY (also referred to as Tyr2-alkyne)[36] were synthesized as described previously.
# [2] = test system: αvβ6-integrin expressing human lung adenocarcinoma cell line H2009 xenografts; test: as above; conditions: H2009 bearing SCID mice
# Experimental: as §1, §2
# [3] = H2009 tumor, read-out: Tumor H2009 %IA/g
# [4] = adrenals, read-out: Adrenals %IA/g
# [5] = heart (myocard), read-out: Heart (myocard) %IA/g
# [6] = kidneys, read-out: Kidneys %IA/g
# [7] = large intestine (empty), read-out: Large intestine (empty) %IA/g
# [8] = pancreas, read-out: Pancreas %IA/g
# [9] = small intestine (empty), read-out: Small intestine (empty) %IA/g
# [10] = stomach (empty), read-out: Stomach (empty) %IA/g
# [11] = tumor/blood, read-out: tumor/organ ratio, Blood
# [12] = tumor/heart (myocard), read-out: tumor/organ ratio, Heart (myocard)
# [13] = tumor/liver, read-out: tumor/organ ratio, Liver
# [14] = tumor/lung, read-out: tumor/organ ratio, Lung
# [15] = tumor/pancreas, read-out: tumor/organ ratio, Pancreas
# [16] = tumor/spleen, read-out: tumor/organ ratio, Spleen
smiles,measurement,setting,value
"CC(C)C[C@@H]1NC(=O)[C@H](CC(=O)O)NC(=O)CNC(=O)[C@H](CCCNC(=N)N)NC(=O)[C@H](Cc2ccccc2)NC(=O)[C@H](CCCCNC(=O)CCC(=O)NCCCC[C@H](NC(=O)[C@H](Cc2ccccc2)NC(=O)CNC(=O)CCc2cn(CCCNC(=O)CCP(=O)(O)CN3CCN(CP(=O)(O)CCC(=O)NCCCn4cc(CCC(=O)NCC(=O)N[C@@H](Cc5ccccc5)C(=O)N[C@@H](CCCCNC(=O)CCC(=O)NCCCC[C@H]5C(=O)N[C@@H](Cc6ccccc6)C(=O)N[C@@H](CCCNC(=N)N)C(=O)NCC(=O)N[C@@H](CC(=O)O)C(=O)N[C@@H](CC(C)C)C(=O)N[C@@H](C)C(=O)N[C@@H](Cc6ccc(O)cc6)C(=O)N6CCC[C@@H]6C(=O)N5C)C(=O)O)nn4)CCN(CP(=O)(O)CCC(=O)NCCCn4cc(CCC(=O)NCC(=O)N[C@@H](Cc5ccccc5)C(=O)N[C@@H](CCCCNC(=O)CCC(=O)NCCCC[C@H]5C(=O)N[C@@H](Cc6ccccc6)C(=O)N[C@@H](CCCNC(=N)N)C(=O)NCC(=O)N[C@@H](CC(=O)O)C(=O)N[C@@H](CC(C)C)C(=O)N[C@@H](C)C(=O)N[C@@H](Cc6ccc(O)cc6)C(=O)N6CCC[C@@H]6C(=O)N5C)C(=O)O)nn4)CCN(CP(=O)(O)CCC(=O)NCCCn4cc(CCC(=O)NCC(=O)N[C@@H](Cc5ccccc5)C(=O)N[C@@H](CCCCNC(=O)CCC(=O)NCCCC[C@H]5C(=O)N[C@@H](Cc6ccccc6)C(=O)N[C@@H](CCCNC(=N)N)C(=O)NCC(=O)N[C@@H](CC(=O)O)C(=O)N[C@@H](CC(C)C)C(=O)N[C@@H](C)C(=O)N[C@@H](Cc6ccc(O)cc6)C(=O)N6CCC[C@@H]6C(=O)N5C)C(=O)O)nn4)CC3)nn2)C(=O)O)N(C)C(=O)[C@H]2CCCN2C(=O)[C@H](Cc2ccc(O)cc2)NC(=O)[C@H](C)NC1=O [Compound 177Lu-GFK-Y4, metal not drawn]",tissue uptake at 72 h,[1]; [3],0.77 %ID/g
same,tissue uptake at 1.5 h,[1]; [3],1.74 %ID/g
same,tissue uptake at 72 h,[1]; [4],0.25 %ID/g
same,tissue uptake at 1.5 h,[1]; [4],0.95 %ID/g
same,tissue uptake at 72 h,"[1]; blood, read-out: Blood %IA/g",0.02 %ID/g
same,tissue uptake at 1.5 h,"[1]; blood, read-out: Blood %IA/g",0.44 %ID/g
same,tissue uptake at 72 h,"[1]; bone, read-out: Bone %IA/g",0.25 %ID/g
same,tissue uptake at 1.5 h,"[1]; bone, read-out: Bone %IA/g",0.49 %ID/g
same,tissue uptake at 72 h,[1]; [5],0.12 %ID/g
same,tissue uptake at 1.5 h,[1]; [5],0.32 %ID/g
same,tissue uptake at 72 h,[1]; [6],169 %ID/g
same,tissue uptake at 1.5 h,[1]; [6],274 %ID/g
same,tissue uptake at 72 h,[1]; [7],0.78 %ID/g
same,tissue uptake at 1.5 h,[1]; [7],1.76 %ID/g
same,tissue uptake at 72 h,"[1]; liver, read-out: Liver %IA/g",0.48 %ID/g
same,tissue uptake at 1.5 h,"[1]; liver, read-out: Liver %IA/g",1.16 %ID/g
same,tissue uptake at 72 h,"[1]; lung, read-out: Lung %IA/g",0.5 %ID/g
same,tissue uptake at 1.5 h,"[1]; lung, read-out: Lung %IA/g",2.88 %ID/g
same,tissue uptake at 72 h,"[1]; muscle, read-out: Muscle %IA/g",0.13 %ID/g
same,tissue uptake at 1.5 h,"[1]; muscle, read-out: Muscle %IA/g",0.26 %ID/g
same,tissue uptake at 72 h,[1]; [8],0.08 %ID/g
same,tissue uptake at 1.5 h,[1]; [8],0.14 %ID/g
same,tissue uptake at 72 h,[1]; [9],0.15 %ID/g
same,tissue uptake at 1.5 h,[1]; [9],0.73 %ID/g
same,tissue uptake at 72 h,"[1]; spleen, read-out: Spleen %IA/g",0.86 %ID/g
same,tissue uptake at 1.5 h,"[1]; spleen, read-out: Spleen %IA/g",0.89 %ID/g
same,tissue uptake at 72 h,[1]; [10],2.42 %ID/g
same,tissue uptake at 1.5 h,[1]; [10],3.29 %ID/g
same,tissue to tissue ratio at 72 h,"[1]; tumor / adrenals, read-out: tumor/organ ratio, Adrenals",3.7
same,tissue to tissue ratio at 72 h,"[1]; tumor / bone, read-out: tumor/organ ratio, Bone",3.2
same,tissue to tissue ratio at 72 h,"[1]; tumor / large intestine (empty), read-out: tumor/organ ratio, Large intestine (empty)",1.4
same,tissue to tissue ratio at 72 h,"[1]; tumor / muscle, read-out: tumor/organ ratio, Muscle",6.9
same,tissue to tissue ratio at 72 h,"[1]; tumor / small intestine (empty), read-out: tumor/organ ratio, Small intestine (empty)",5.6
same,tissue to tissue ratio at 72 h,"[1]; tumor / stomach (empty), read-out: tumor/organ ratio, Stomach (empty)",0.4
same,tissue to tissue ratio at 1.5 h,"[1]; tumor/adrenals, read-out: tumor/organ ratio, Adrenals",2.2
same,tissue to tissue ratio at 72 h,[1]; [11],56.1
same,tissue to tissue ratio at 1.5 h,[1]; [11],4.3
same,tissue to tissue ratio at 1.5 h,"[1]; tumor/bone, read-out: tumor/organ ratio, Bone",3.6
same,tissue to tissue ratio at 72 h,[1]; [12],6.9
same,tissue to tissue ratio at 1.5 h,[1]; [12],5.5
same,tissue to tissue ratio at 1.5 h,"[1]; tumor/large intestine (empty), read-out: tumor/organ ratio, Large intestine (empty)",1.1
same,tissue to tissue ratio at 72 h,[1]; [13],2
same,tissue to tissue ratio at 1.5 h,[1]; [13],1.7
same,tissue to tissue ratio at 72 h,[1]; [14],1.8
same,tissue to tissue ratio at 1.5 h,[1]; [14],0.6
same,tissue to tissue ratio at 1.5 h,"[1]; tumor/muscle, read-out: tumor/organ ratio, Muscle",7.2
same,tissue to tissue ratio at 72 h,[1]; [15],9.9
same,tissue to tissue ratio at 1.5 h,[1]; [15],12.2
same,tissue to tissue ratio at 1.5 h,"[1]; tumor/small intestine (empty), read-out: tumor/organ ratio, Small intestine (empty)",2.5
same,tissue to tissue ratio at 72 h,[1]; [16],1
same,tissue to tissue ratio at 1.5 h,[1]; [16],2.1
same,tissue to tissue ratio at 1.5 h,"[1]; tumor/stomach (empty), read-out: tumor/organ ratio, Stomach (empty)",0.6
same,"tumor/organ ratio, Kidneys",[2]; 90 min p.i.,0.0
same,"tumor/organ ratio, Kidneys",[2]; 3 d p.i.,0.0
